B1: TPR t1 (parent)
chain: GACCAAUCUGCCCUCAGAGCUCGAGAACAUCUUCGGAUGCAGAGGAGGCAGGCUUCGGUGGCGCGAUAGCGCCAACGUCCUCAACCUCCAAUGCAUCCCACCACAUGAUGAUGCCUGAAGAGCCUUGGUUUUUUG

Variants of: B1
Assay: polymerase ribozyme fitness, log enrichment relative to wild type (log ratio); higher = more active; in vitro selection for triplet polymerase activity
Method in brief: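 Mutant libraries for each subunit of a heterodimeric triplet polymerase ribozyme were made by PCR and then transcribed. Each library underwent one round of in vitro selection in triplicate: annealing with a biotinylated primer, the partner subunit and triplets, frozen incubation at −7 °C, gel excision of extended constructs, streptavidin-bead capture and RT-PCR. Input and output libraries were Illumina-sequenced, and only genotypes with ≥10 input reads and ≥1 read per output were kept. Fitness is the logarithm, base 2, of genotype enrichment over wild-type enrichment, computed from inverse-variance-weighted replicate averages.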

First: GAACAAUCUGCCCUCAGAGCUCGAGAACAUCUUCGGAUGCAGAGGAGACAGGCUUCGGUGGCGCGAUAGCGUCAACGUCCUCAGCCUCCAAUGCAUCCCACCACAUGAUGAUGCCUGAAGAGCCUUGGUUUUUUG
Second: GAACAAUCUGCCCUCAGAGCUCGAGAACAUCUUCGGAUGCAGAGGAGGCAGGCUUCGGUGGCGCGAUAGCGCCAACGUCCUCAACCUCCAAUGCAUCCCACAACACGAUGAUGCCUGAAUAGCUUUGGUUUUUUG
The “polymerase ribozyme fitness (log ratio)” value of the first is higher: -1.58 for the first, -2.57 for the second.

First: GAACAAUCUGCCCUCAGAGCUCGAGAACAUCUUCGGAUGCAGAGGAGGCAGGCUUCGGUGGCGCGAUAGCGCCAACGUCCUCAACCUCCAAUGCAUCCCACCACAUGAUGAUGCCUGAAGAGCAUUGGUUUUUUG
Second: GAACAAUCUGCCCUCAGAGCUCGAGAACAUCUUCGGAUCCAGAGGAGGCAGGCUUCGGUGGCGCGAUAGCGUCAACGUCCUCAACCUCCAAAGCAUCCCACCACAUGAUGGUGCCUGAAGAGCCUUGGUUUUUUG
The “polymerase ribozyme fitness (log ratio)” value of the first is higher: -0.333 for the first, -5.51 for the second.

Going from GAACAAUCUGCCCUCAGAGCUCGAGAACAUCUUCGGAUGCAGAGGAGGCAGGCUUCGGUGGCGUGAUAGCACCAACGUCCUCAACCUCCAAUGCAUCCCACCACAUGAUUAUGCCUGAAGAGCCUUGGGUUUUUG to GAACAAUCUGCCCUCAGAGCUCGAGAACAUCUUCGAAUGCAGAGGAGGCAGGCUUCGGUGGCGUGAUAGCGCCAACGUCCUCAACCUCCAAUGCAUCCCACCACAUGAUGAUGCCUGAAGAGGCUUGGUUUUUUG, the “polymerase ribozyme fitness (log ratio)” value rises from -6.8 to -0.723.

Compared with GAACAAUCUGCCCUCAGAGCUCGAGAACAUCUUCGGAUGCAGAGGAGGCAGGCUUCGGUGGCGCGAUAGCGCCAACGUCCUCAAUCUCCUAUGCAUCCCACCACAUGAUGAUGUCUGAAGAGCCUUCGUUUUUUG, GAACAAUCUGCCCUCAGAGCUCGAGAACAUCUUCGGAUGCAUAGGAGUCAGUCUUCGGUGGCGUGAUAGCGCCAACGUCCUCAACUUCCAAUGCAUCCCACCACAUGAUGAUUCCUGAAGAGCCUUGGUUUUGUG is lower in “polymerase ribozyme fitness (log ratio)” value: -2.77 for the first, -7.08 for the second.

Compared with GAACAAUCUGCCCGCAGAGCUCGAGAACAUCUUCGGAUGCAGAGGAGGCAGGCUUCGGUGGAGCGAUAGCGCCAACGUCCUCAACCUCCAAUGCAUCCCACCACAUGAUGAUGCCUGAUAAGCCUUGGUUUUUUG, GAACAAUCUGCCCUCAGAGCUCGAGAACAUCUUCGGAUGCAGAGGAGGCAGGCUUCGGUAGCGCGAUAGCGCCAACGUCCUCAACCUCCAAUGCAUCCCACCACAUGAUGACGCCUGAAGAGCCUUGGUUUUUUG is higher in “polymerase ribozyme fitness (log ratio)” value: -2.14 for the first, 0.261 for the second.

Going from GAACAAUCUGCCCUCAGAGCUCGAGAACAUCUUCGGAUGCAGAGGAGGCAGGCUUCGGUGGCGCGAUAGCGCCAACGUCCUCAACCUCCAAUGCAUCCCACCACAUGAUGAUGUCUGAAGAGCCUUGGUUUUUUG to GAGCAAUGUGCUCUCAGAGCUCGAGAACAUCUUCGGAUGCAGAGGAGGCAGGCUUCGGUGGCGCGAUAGCGCCAACGUUCUCAACCUCCAAUGCAUCCCACCACAUGAUCAUGCCUGAAGAGCCUUGGUAUUUUG, the “polymerase ribozyme fitness (log ratio)” value falls from -3.65 to -5.96.

Going from GAACAAUCUGCCCUCAGAGCUCGAGAACAUCUUCGGAUGCAGAGGAGGCAGGCUUCGGUGGCGCGAUAGCGCCAACGACCUCAACCUCCAAUGCAUCCCACCACAUGAUGAUGCCUGAAGAGCCUUGGUUUUUUG to GAACAAUCUGCCCUCAGAGCUCGAGAACAUCUUCGGAUGCAGAGGAGGCAGGCUUCGGUGGCGCGAUAGCGCCAACGCCCUCAACCUCCAAUGCAUCCCACCACAUGAUGAUGCCUGAAGAGCCUUGGUUUUUUG, the “polymerase ribozyme fitness (log ratio)” value rises from -1.96 to -0.717.

Going from GAGUAAUCUGCCCUCAGAGCUCGAGAACAUCUUCGGAUGCAGAGGAGGCAGGCUUCGGUGGCGCGAUAGCGCCAACGUCCUCUACCUCCAAUGCAUCCCACCACAUGAUGAUGCCUGAAGAUUCUUGGUUUUUUG to GAGCACUCUGCCCUCAGAGCUCGAGAACAUCUUCGGAUGCAGAGGAGGAAGGUUUCGGUGCCGCGAUAGCGCCAACGUCCUCAACCUCCAAUGCAUUCCAUCACAUGAUGAUGCCUGAAGAGCCUUGGUUUUUUG, the “polymerase ribozyme fitness (log ratio)” value falls from -0.882 to -3.42.

Going from GAGCAAUCUGCCCUCAGAGCUCGAGAACAUCUUCGGAUGCAGAGGUGGCAGGCUUCGGUGGCGCGAUAGCGACAACGUCCUCAACCUCCAAUGCAUCCCACCACAUGAUGAUCCCUGAAGAGCCUUGGUUUUUUG to GAACAAUCUGCCCUCAGAGCUCGAGAACAUCUUCGGAUGCAAAGGAGGCAGGCUUCCGUGGCGCGAUAGCGCCAACGUCCUCAACCUCCAAUGCAUCCCACCACAUUAUGAUGUCUGAAGAGCCUUGUUCUUUUG, the “polymerase ribozyme fitness (log ratio)” value falls from -3.77 to -4.37.

First: GAACAAUCUGCCCUCAGAGCUCGAGAACAUCUUCGGAUGCAGAGGAGGCAGGCUUCGGUGGCGCGAUAGCGCCAACGUUCUCAACCUCCAAUGCAUCCCACCACAUGAUGAUGCCUGAAGAGCGUUGGUUUUUUG
Second: GAACAAUCUGCCCUCAGAGCUCGAGAACAUCUUCGGAUGCAGAGGAGACAGGCUUCGGUGGCGCGAUAGCGCCAACGUCCUCAGCCUCCAAUGCAUCCCACCACAUGAUGAUGUCUGAAGAGCCUUGGUUUUUUG
The “polymerase ribozyme fitness (log ratio)” value of the first is higher: 0.849 for the first, -3.87 for the second.

With GAACAAUCUGCCCUCAGAGCACGAGAACAUCUUCGGAUGCAGAGGAGGCAGGCUUCGGUGGCGCGAUAGCUCCAACGUCCUCAACCUCCAAUGCAUCCCACCACAUGAUGAUGCCUGAAGAGCCUUGGUUUUUUG the “polymerase ribozyme fitness (log ratio)” value was -2.65.
